Data reported in patent US7033773B1, “Screening assays for G protein coupled receptor agonists and antagonists” (The General Hospital Corporation, priority 1997, dated 2006).
Where no end group is shown, it is not given here.

Assays:
[1] = target: T1, human PTH/PTHrP receptor (Homo sapiens, UniProt Q03431); assay: Cytosolic free calcium (fura-2) in LLC-PK1 cells expressing human PTHR; settings: 100 nM peptide; HKRK B7 cells
T1 sequence (Q03431 27-593): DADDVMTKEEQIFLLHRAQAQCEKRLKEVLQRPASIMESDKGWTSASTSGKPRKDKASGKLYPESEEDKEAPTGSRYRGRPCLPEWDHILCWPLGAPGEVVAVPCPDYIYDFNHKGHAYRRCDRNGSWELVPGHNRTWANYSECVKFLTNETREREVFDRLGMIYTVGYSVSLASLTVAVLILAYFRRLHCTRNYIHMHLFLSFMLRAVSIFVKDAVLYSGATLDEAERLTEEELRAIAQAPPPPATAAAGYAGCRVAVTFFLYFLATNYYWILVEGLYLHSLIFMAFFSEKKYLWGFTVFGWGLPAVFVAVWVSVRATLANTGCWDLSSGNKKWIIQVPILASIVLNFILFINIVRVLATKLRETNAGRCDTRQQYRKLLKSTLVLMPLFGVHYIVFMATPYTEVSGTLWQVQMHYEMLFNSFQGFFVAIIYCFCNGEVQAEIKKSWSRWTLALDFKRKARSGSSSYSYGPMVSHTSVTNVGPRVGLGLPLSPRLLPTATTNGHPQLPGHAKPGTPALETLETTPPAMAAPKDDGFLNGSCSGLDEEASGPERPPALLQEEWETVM
Procedure: Cytosolic free calcium was measured in fura 2AM-loaded confluent monolayers of cells.
Cytosolic free calcium was measured by dual fluorescence in cells loaded with the Ca^2+-sensitive intracellular probe fura-2. Cells were seeded onto glass coverslips at a density of 40,000-600,000/cm^2 and incubated for 2 days as described above. Coverslips were washed twice with PBS before loading in phosphate-free Buffer B containing 4 uM of fura-2/AM (Molecular Probes, Eugene, Oreg.) for 30 min at room temperature (22° C.). After washing twice with fura-free Buffer B, the coverslips were mounted in a cuvette containing 2 ml of phosphate-free Buffer B at 37° C. and the emission at 510 nm in response to alternating excitation at 340 and 380 nm was monitored using a ratiometric PTI Deltascan fluorescence spectrometer with excitation and emission bandwidths of 2 nm. After achieving a stable baseline, agonists were introduced by exchange into 2 ml of fresh buffer to which 10-20 ul of concentrated agonist stock (or vehicle alone) had been added. Peptide stocks were prepared in 0.1% trifluoroacetic acid, ionomycin and phorbol esters were dissolved in dimethyl sulfoxide and all other additives were prepared in water. Maximum and minimum fluorescence signals were obtained by exposure to modified buffers containing 1 uM ionomycin plus 20 mM calcium or 2 mM EGTA in the nominal absence of calcium, respectively, and autofluorescence was estimated from signals obtained in the presence of ionomycin plus 2.5 mM MnCl2.

[2] = target: T1, human PTH/PTHrP receptor; assay: Cellular cAMP accumulation in LLC-PK1 cells expressing human PTHR; assay type: cell-based; parameters: transfected with a full-length human PTH/PTHrP receptor cDNA; expressed in transfected cells; settings: HKRK B28 cells; for activation of AC (in words): similar in HKRK B7
Procedure: Cells were seeded into 24-well plates at a density of 2.5×10^5 cells/well and cultured for a further 2 days before study. The cells were rinsed once with 0.5 ml of ice-cold Buffer B [10 mM HEPES (pH 7.4), 130 mM NaCl, 5 mM KCl, 1.2 mM CaCl2, 1 mM MgCl2, 1.2 mM Na2HPO^4 5 mM glucose, and 0.1% heat-inactivated BSA] supplemented with 1 mM isobtylmethylxanthine (IBMX), and placed on ice. Treatments were added to each well in 0.25 ml of IBMX-supplemented Buffer B, after which the plates were incubated at 37° C. for 15 min. The buffer then was rapidly aspirated, the plates were rapidly transferred onto liquid nitrogen, and the frozen monolayers were subsequently thawed directly into 0.5 ml of 50 mM HCl. The extracted cAMP then was measured using a commercial RIA kit (Dupont-New England Nuclear, Boston, Mass.). Results were expressed as fold-basal, where basal levels ranged between 38 and 128 pmol/mg protein/15 min. The basal level of cAMP accumulation in native LLC-PK1 cells was not consistently altered in subclones that expressed wild type PTH/PTHrp receptors.
Maximal PTH-dependent cAMP accumulation was assessed in the human PTHR-transfected LLC-PK1 subclones following incubation for 15 min with a high concentration (1000 nM) of hPTH(1-34) (Table 1). As reported previously for LLC-PK1 cells that stably expressed rat PTHRs (Guo, J., et al., Endocrinology 136:3884-3891 (1995)), the maximal adenylyl cyclase response was relatively independent of the surface density of human PTHRs above a relatively low threshold (relative to that required for PLC activation—see below). In the case of the human PTHR, however, this threshold for saturation of maximal AC activation appeared to lie between 120,000 and 280,000 (Table 1), which is at least 6 to 10-fold higher than that previously observed for the rat PTHR (Guo, J., et al., Endocrinology 136:3884-3891 (1995)).

[3] = target: T1, human PTH/PTHrP receptor; assay: IP3 production (PLC activation) in LLC-PK1 cells expressing human PTHR; assay type: cell-based; parameters: transfected with a full-length human PTH/PTHrP receptor cDNA; expressed in transfected cells; settings: for activation of PLC (in words): 1000 nM, HKRK B28 at 4 min and HKRK B7 at 30 min; for formation of IP3 (activation of phospholipase-C): peptide 1000 nM, mean±SEM
Procedure: Cells were seeded into 24-well plates at a density of 2.5×10^5 cells/well and cultured for a further 2 days before study. The cells were labeled at 37° C. for 16 h before assay with 3 uCi/ml of [^3H]myo-inositol in assay medium (serum- and inositol-free DMEM (GIBCO-BRL, Grand Island, N.Y.) supplemented with 0.1% BSA). After washing the cells with prewarmed assay medium containing 30 mM LiCl, they were incubated with 0.25 ml of assay medium containing 30 mM LiCl and stimulators (or vehicle) at 37° C. for various intervals(1-30 min). IP3 formation was arrested by aspiration and immediate addition of 0.5 ml of ice-cold 5% TCA. The acid extracts then were extracted twice with two volumes of water-saturated ether and adjusted to pH 7.4 with concentrated NaOH and Tris base (final concentration=10 mM) prior to chromatography on AG 1×8 anion-exchange columns (Bio-Rad, Richmond, Calif.), as previously described (Guo, J., et al., Endocrinology 136:3884-3891 (1995)). After eluting other fractions (free [^3H]myo-inositol, glycerophosphate inositol, IP1, and IP2), IP3 fractions were collected and their content of radioactivity was determined by liquid scintillation spectrometry (Beckman, model LS 6000IC).
HKRK B7 cells and HKRK B28 cells, previously loaded with [^3H]myo-inositol, were incubated with each peptide (1000 nM) for 30 min or 4 min, respectively. The formation of IP3 is expressed as a percentage of the amount measured in vehicle-treated controls. Values shown are means±SEM of triplicate determinations.

[4] = target: T1, human PTH/PTHrP receptor; assay: Cellular phosphate uptake in LLC-PK1 cells expressing human PTHR; assay type: cell-based; parameters: transfected with a full-length human PTH/PTHrP receptor cDNA; expressed in transfected cells; settings: HKRK B28 and HKRK B7 cells; peptides 1000 nM, 6 hr
Procedure: FIG. 8. Regulation of phosphate uptake by PTH in HKRK B7 and HKRK B28 cells. […] Results are expressed as percentage of basal, and each bar represents the mean±SEM of a representative experiment performed in triplicate. Similar results were obtained from at least 5 individual experiments. Cells were seeded into 24-well plates at a density of 2.5×10^5 cells/well and cultured for a further 2 days before study. Twenty four hours before assay, cells were refed with 0.5 ml of DMEM containing 0.1% BSA. The next day, cells were refed with serum-free medium (DMEM+0.1% BSA) containing drugs or peptides, and the incubations were continued at 37° C. under 5% CO2 in air for another 6 hr. Cells then were washed with prewarmed Buffer B without BSA and Na2HPO4 and then were incubated at 37° C. for 5 min in 0.25 ml of the same buffer containing [^32P]orthophosphate (4 uCi/ml) and 0.1 mM Na2HPO4. Phosphate uptake was arrested by adding 1 ml of ice-cold sodium-free “stop buffer” [10 mM HEPES (pH 7.4), 140 mM choline chloride, and 5 mM sodium arsenate], followed by two further washes with same buffer. The drained cell layer then was solubilized in 0.5 ml of Lysis Buffer, and cell-associated radioactivity was determined by Cerenkov counting, as previously described (Guo, J., et al., Endocrinology 136:3884-3891 (1995)).

[5] = target: T1, human PTH/PTHrP receptor; assay: Urokinase-type plasminogen activator (u-PA) secretion bioassay in LLC-PK1 cells expressing human PTHR; settings: for secreted u-PA: peptide 1000 nM, 16 hr, mean±SEM
Procedure: Cells were seeded into 96-well plates at a density of 6×10^4 cells/well and used the following day. The cells were washed once with 0.2 ml and then refed with 0.1 ml of prewarmed DMEM containing 0.05% BSA. After adding each stimulator, plates were returned to the incubator at 37° C. for 16 h. Conditioned medium (5 ul) then was transferred from each well to a clean microplate. […] Activity was expressed in Ploug units/well, using purified human urokinase (Calbiochem) as a standard.
Cells were incubated with the indicated peptides (1000 nM) for 16 hr before measurement of secreted u-PA present in the medium, which was expressed as a percentage of the activity measured in vehicle-treated controls. Values shown are means±SEM of triplicate determinations.

[6] = HKRK B7 cells, 30 min stimulation
[7] = HKRK B28 cells, 4 min stimulation

Substance | cytosolic free calcium transients [1] | concentrations at which AC was stimulated significantly [2] [nM] | cAMP response as % of the maximal response to hPTH(1-34) ([2]; 1000 nM peptide) [%] | activation of PLC (in words) [3] | formation of IP3 (activation of phospholipase-C) [3, 6] | formation of IP3 (activation of phospholipase-C) [3, 7] | maximal activation of phosphate uptake (in words) [4] | u-PA bioassay activity, % of maximal response to hPTH(1-34) ([5]; HKRK B7 and HKRK B28 cells) | secreted u-PA ([5]; HKRK B7 cells) | secreted u-PA ([5]; HKRK B28 cells) | activation of AC (in words) [2] | u-PA bioassay activity (in words) ([5]; HKRK B7 and HKRK B28 cells)
hPTH(3-34) (SEIQLMHNLGKHLNSMERVEWLRKKLQDVHNF-NH2; UniProt P01270 34-65, looked up, fragment) | neither hPTH(3-34) nor hPTH(7-34) (100 nM) induced this response | ≥ 10 | 16 | neither hPTH(3-34) nor hPTH(7-34) activated PLC significantly | 103 ± 1 percentage of vehicle-treated | 85 ± 9 percentage of vehicle-treated | inactive | 50-60% | 57 ± 3 percentage of the activity measured in vehicle-treated controls | 50 ± 1 percentage of the activity measured in vehicle-treated controls | – | –
hPTH(7-34) (LMHNLGKHLNSMERVEWLRKKLQDVHNF; Parathyroid hormone; UniProt P01270 38-65, looked up, fragment) | neither hPTH(3-34) nor hPTH(7-34) (100 nM) induced this response | – | – | neither hPTH(3-34) nor hPTH(7-34) activated PLC significantly | 122 ± 7 percentage of vehicle-treated | 92 ± 10 percentage of vehicle-treated | inactive | – | 1 ± 1 percentage of the activity measured in vehicle-treated controls | 0 ± 2 percentage of the activity measured in vehicle-treated controls | failed to activate AC at all concentrations tested | inactive
hPTHrp(1-36) | – | – | – | stimulated PLC equivalently to hPTH(1-34) | 93 ± 6 percentage of vehicle-treated | 160 ± 9 percentage of vehicle-treated | comparable maximal activation of phosphate uptake | – | 88 ± 5 percentage of the activity measured in vehicle-treated controls | 97 ± 9 percentage of the activity measured in vehicle-treated controls | indistinguishable from that to hPTH(1-34) | –
